“And” between values parts separate entries of the source, which are not always exact repeats. Equal entries are not always repeated. Where two headings read alike, the source gives them in different places.
What was measured:
Experiment in all cases: mass photometry
[1] = target: PopZ P146A (Caulobacter crescentus)
[2] = target: PopZ P146A (Caulobacter crescentus); remark: listed apart in the source
[3] = target: isolated OD-ΔL6 of PopZ (residues 102-171) (Caulobacter crescentus)
[4] = target: polar organizing protein Z (PopZ), wild type (Caulobacter crescentus)
[5] = target: ΔH2-PopZ (PopZ lacking residues 102-128) (Caulobacter crescentus)
[6] = target: ΔL6-PopZ (PopZ lacking residues 172-177) (Caulobacter crescentus)
[7] = target: ΔL6-PopZ (PopZ lacking residues 172-177) (Caulobacter crescentus); remark: listed apart in the source
[8] = target: Δloop-PopZ (PopZ lacking residues 129-134) (Caulobacter crescentus)

In the case of PopZ P146A (natural protein), the stoichiometry N [1] is reported as 3 and the stoichiometry N [2] is reported as 3.

Substance “isolated OD-ΔL6 of PopZ (residues 102-171) (domain or fragment)” has a stoichiometry N [3] of 6.

For “polar organizing protein Z (PopZ), wild type (natural protein)”, the stoichiometry N [4] was 12 and 18.

“ΔH2-PopZ (PopZ lacking residues 102-128) (natural protein)” was tested, and the stoichiometry N [5] was 3 and 6.

Substance “ΔL6-PopZ (PopZ lacking residues 172-177) (domain or fragment)” has a stoichiometry N [6] of 6 and a stoichiometry N [7] of 6.

Work on “Δloop-PopZ (PopZ lacking residues 129-134) (natural protein)” yielded a stoichiometry N [8] of 3.

From article PMC11703246
